{"source": "paper PMC11838285", "about": "(bioRxiv, 2025)", "binders": {"B1": {"name": "RECQL5_(1–620) D157A (domain or fragment)", "chain": "MSSHHTTFPFDPERRVRSTLKKVFGFDSFKTPLQESATMAVVKGNKDVFVCMPTGAGKSLCYQLPALLAKGITIVVSPLIALIQDQVDHLLTLKVRVSSLNSKLSAQERKELLADLEREKPQTKILYITPEMAASSSFQPTLNSLVSRHLLSYLVVAEAHCVSQWGHDFRPDYLRLGALRSRLGHAPCVALTATATPQVQEDVFAALHLKKPVAIFKTPCFRANLFYDVQFKELISDPYGNLKDFCLKALGQEADKGLSGCGIVYCRTREACEQLAIELSCRGVNAKAYHAGLKASERTLVQNDWMEEKVPVIVATISFGMGVDKANVRFVAHWNIAKSMAGYYQESGRAGRDGKPSWCRLYYSRNDRDQVSFLIRKEVAKLQEKRGNKASDKATIMAFDALVTFCEELGCRHAAIAKYFGDALPACAKGCDHCQNPTAVRRRLEALERSSSWSKTCIGPSQGNGFDPELYEGGRKGYGDFSRYDEGSGGSGDEGRDEAHKREWNLFYQKQMQLRKGKDPKIEEFVPPDENCPLKEASSRRIPRLTVKAREHCLRLLEEALSSNRQSTRTADEADLRAKAVELEHETFRNAKVANLYKASVLKKVADIHRASKDGQPYDM"}}, "target": "RPB1 subunit of human RNA Polymerase II (human, UniProt P24928 1-1970)", "assay": "cryo-EM structure", "data": [{"binder": "B1", "values": [{"measurement": "binding result", "value": "binds"}]}]}
